Reference: article PMC3760834

Target: GST-Cx46G143R loop fusion protein (intracellular loop domain of human Cx46 with the cataract mutation G143R) (human)
Experiment: pull-down; GST, GST-Cx46 loop or GST-Cx46G143R loop on glutathione beads incubated with crude membrane proteins of HeLa cells expressing Cx46, rotating platform, 4°C overnight; eluted proteins blotted with anti-Cx46 and anti-GST

Substance: human connexin 46 (Cx46), wild type (from UniProt Q9Y6H8 1-435) (natural protein)
- fold of Cx46 pulled down against the wild-type GST-Cx46 loop: > 2 fold
